# Results: US20200157236A1 (CELLDEX THERAPEUTICS, published 2020)
# Biological target: T1, purified ALK protein (BLitz, Table 20) (Homo sapiens (Human), UniProt Q9UM73 19-1038, limits assumed)
# T1 construct: also called purified ALK proteins
# Experiment: BLI (BLitz), mAb on Protein A tip, purified ALK in solution
# Procedure: Kinetic measurements of the monovalent affinity of the 96 humanized ALK antibody variants (Ab351-Ab446) were collected. Affinity ranking was performed using a BLitz® System (ForteBio, Menlo Park, Calif.). Humanized anti-ALK antibodies were immobilized at 0.5 mg/mL using Protein A tips. Once baseline stability was ensured, purified ALK proteins at 70 μg/mL were added. The resulting kinetic data were fit to a single binding site equation, from which the quoted monovalent KD values were derived.
# T1 sequence (Q9UM73 19-1038 limits assumed): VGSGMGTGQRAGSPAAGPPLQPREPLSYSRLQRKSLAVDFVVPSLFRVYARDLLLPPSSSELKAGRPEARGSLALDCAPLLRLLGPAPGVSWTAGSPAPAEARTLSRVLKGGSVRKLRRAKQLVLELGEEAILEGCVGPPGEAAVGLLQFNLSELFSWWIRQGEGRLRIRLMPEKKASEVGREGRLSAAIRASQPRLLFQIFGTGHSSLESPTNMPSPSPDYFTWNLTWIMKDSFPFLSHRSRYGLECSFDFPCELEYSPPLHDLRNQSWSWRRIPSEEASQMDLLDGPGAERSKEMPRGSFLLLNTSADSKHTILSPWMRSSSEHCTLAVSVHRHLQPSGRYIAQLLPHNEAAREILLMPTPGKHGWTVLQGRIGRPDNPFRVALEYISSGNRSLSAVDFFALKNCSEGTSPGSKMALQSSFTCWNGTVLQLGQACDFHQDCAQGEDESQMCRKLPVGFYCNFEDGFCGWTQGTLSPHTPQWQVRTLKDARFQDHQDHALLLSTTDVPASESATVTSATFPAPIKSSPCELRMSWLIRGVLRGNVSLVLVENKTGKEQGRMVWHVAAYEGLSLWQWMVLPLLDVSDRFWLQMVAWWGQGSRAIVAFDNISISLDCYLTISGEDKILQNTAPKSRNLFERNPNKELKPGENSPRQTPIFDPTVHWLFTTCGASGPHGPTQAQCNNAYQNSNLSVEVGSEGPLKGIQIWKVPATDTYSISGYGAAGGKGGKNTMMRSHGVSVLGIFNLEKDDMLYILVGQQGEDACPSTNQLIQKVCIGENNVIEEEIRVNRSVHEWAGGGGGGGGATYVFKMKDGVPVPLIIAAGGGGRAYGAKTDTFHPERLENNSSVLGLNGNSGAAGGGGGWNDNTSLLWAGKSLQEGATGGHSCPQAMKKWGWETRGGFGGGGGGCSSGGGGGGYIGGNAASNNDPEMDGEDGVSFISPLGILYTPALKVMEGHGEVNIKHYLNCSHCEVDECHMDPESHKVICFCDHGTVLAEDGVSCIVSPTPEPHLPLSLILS
row,Kd,Binder
1,0.179 µM,"Ab392 (antibody, V domains shown, humanized) VH: EVQLVQSGAEVKKPGASVKLSCKASGYTFTSYWMHWVRQAPGQGLEWIGYIKPSSGYTKYNQKFKDKATLTADKSTSTAYMELRSLRSDDTAVYYCARDYYGSSSWFAYWGQGTLVTVSS VL: EIVMTQSPATLSTSPGERATLSCKASQNVGTNVAWYQQKPGQAPRALIYSASYRYSGVPARFSGSGSGTDFTLTISSVEPEDFAVYYCQQYNSYPYMYTFGQGTKLEIK"
2,0.143 µM,"Ab411 (antibody, V domains shown, humanized) VH: QVQLVQSGAEVAKPGTSVKLSCKASGYTFTSYWMHWVKQAPGQGLEWIGYIKPSSGYTKYNQKFKDKVTLTADKSTSTAYMELSSLRSEDTAVYYCARDYYGSSSWFAYWGQGTLVTVSS VL: EIVMTQSQATLSTSPGERATLSCKASQNVGTNVAWYQQKPGQAPRALIYSASYRYSGVPARFSGSGSGTDFTLTISSVEPEDFAVYYCQQYNSYPYMYTFGQGTKLEIK"
3,0.221 µM,"Ab398 (antibody, V domains shown, humanized) VH: EVQLVQSGAEVKKPGSSVKLSCKASGYTFSSYWMHWVKQAPGQGLEWIGYIKPSSGYTKYAQKFQGRVTLTADKSTSTAYMELSSLRSEDTAVYYCARDYYGSSSWFAYWGQGTLVTVSS VL: EIVMTQSPATLSTSPGERATLSCKASQNVGTNVAWYQQKPGQAPRALIYSASYRYSGVPARFSGSGSGTDFTLTISSVEPEDFAVYYCQQYNSYPYMYTFGQGTKLEIK"
4,0.195 µM,"Ab405 (antibody, V domains shown, humanized) VH: EVQLVQSGAEVAKPGASVKLSCKASGYTFTSYWMHWVRQAPGQGLEWIGYIKPSSGYTKYNQKFKDKATLTADKSTSTAYMELRSLRSDDTAVYYCARDYYGSSSWFAYWGQGTLVTVSS VL: EIVMTQSQATMSTSVGERATLSCKASQNVGTNVAWYQQKPGQSPKALIYSASYRYSGVPARFSGSGSGTDFTLTISSVEPEDFAVYYCQQYNSYPYMYTFGQGTKLEIK"
5,0.157 µM,"Ab394 (antibody, V domains shown, humanized) VH: EVQLVQSGAEVKKPGASVKLSCKASGYTFTSYWMHWVRQAPGQGLEWIGYIKPSSGYTKYAQKLQGRVTLTADKSTSTAYMELRSLRSDDTAVYYCARDYYGSSSWFAYWGQGTLVTVSS VL: EIVMTQSPATLSTSPGERATLSCKASQNVGTNVAWYQQKPGQAPRALIYSASYRYSGVPARFSGSGSGTDFTLTISSVEPEDFAVYYCQQYNSYPYMYTFGQGTKLEIK"
6,0.142 µM,"Ab414 (antibody, V domains shown, humanized) VH: EVQLVQSGAEVKKPGTSVKLSCKASGYTFTSYWMHWVRQARGQRLEWIGYIKPSSGYTKYAQKFQERVTLTADKSTSTAYMELSSLRSEDTAVYYCARDYYGSSSWFAYWGQGTLVTVSS VL: EIVMTQSQATLSTSPGERATLSCKASQNVGTNVAWYQQKPGQAPRALIYSASYRYSGVPARFSGSGSGTDFTLTISSVEPEDFAVYYCQQYNSYPYMYTFGQGTKLEIK"
7,0.107 µM,"Ab399 (antibody, V domains shown, humanized) VH: QVQLVQSGAEVAKPGTSVKLSCKASGYTFTSYWMHWVKQAPGQGLEWIGYIKPSSGYTKYNQKFKDKVTLTADKSTSTAYMELSSLRSEDTAVYYCARDYYGSSSWFAYWGQGTLVTVSS VL: EIVMTQSQATMSTSVGERATLSCKASQNVGTNVAWYQQKPGQSPKALIYSASYRYSGVPARFSGSGSGTDFTLTISSVEPEDFAVYYCQQYNSYPYMYTFGQGTKLEIK"
8,0.144 µM,"Ab408 (antibody, V domains shown, humanized) VH: EVQLVQSGAEVKKPGSSVKLSCKASGYTFTSYWMHWVRQAPGQGLEWIGYIKPSSGYTKYNQKFKDKATLTADKSTSTAYMELSSLRSEDTAVYYCARDYYGSSSWFAYWGQGTLVTVSS VL: EIVMTQSQATMSTSVGERATLSCKASQNVGTNVAWYQQKPGQSPKALIYSASYRYSGVPARFSGSGSGTDFTLTISSVEPEDFAVYYCQQYNSYPYMYTFGQGTKLEIK"
9,0.378 µM,"Ab397 (antibody, V domains shown, humanized) VH: EVQLVQSGAEVKKPGSSVKVSCKASGYTFSSYWMHWVRQAPGQGLEWIGYIKPSSGYTKYNQKFKDKATLTADKSTSTAYMELSSLRSEDTAVYYCARDYYGSSSWFAYWGQGTLVTVSS VL: EIVMTQSPATLSTSPGERATLSCKASQNVGTNVAWYQQKPGQAPRALIYSASYRYSGVPARFSGSGSGTDFTLTISSVEPEDFAVYYCQQYNSYPYMYTFGQGTKLEIK"
10,0.144 µM,"Ab410 (antibody, V domains shown, humanized) VH: EVQLVQSGAEVKKPGSSVKLSCKASGYTFSSYWMHWVKQAPGQGLEWIGYIKPSSGYTKYAQKFQGRVTLTADKSTSTAYMELSSLRSEDTAVYYCARDYYGSSSWFAYWGQGTLVTVSS VL: EIVMTQSQATMSTSVGERATLSCKASQNVGTNVAWYQQKPGQSPKALIYSASYRYSGVPARFSGSGSGTDFTLTISSVEPEDFAVYYCQQYNSYPYMYTFGQGTKLEIK"
11,0.109 µM,"Ab407 (antibody, V domains shown, humanized) VH: QVQLVQSGAEVAKPGSSVKLSCKASGYTFTSYWMHWVKQAPGQGLEWIGYIKPSSGYTKYNQKFKDKATLTADKSTSTAYMELSSLRSEDTAVYYCARDYYGSSSWFAYWGQGTLVTVSS VL: EIVMTQSQATMSTSVGERATLSCKASQNVGTNVAWYQQKPGQSPKALIYSASYRYSGVPARFSGSGSGTDFTLTISSVEPEDFAVYYCQQYNSYPYMYTFGQGTKLEIK"
12,1.06 µM,"Ab401 (antibody, V domains shown, humanized) VH: EVQLVQSGAEVKKPGTSVKLSCKASGYTFTSSAMQWVKQAPGQGLEWIGYIKPSSGYTKYNQKFKDKATLTADKSTSTAYMELSSLRSEDTAVYYCARDYYGSSSWFAYWGQGTLVTVSS VL: EIVMTQSQATMSTSVGERATLSCKASQNVGTNVAWYQQKPGQSPKALIYSASYRYSGVPARFSGSGSGTDFTLTISSVEPEDFAVYYCQQYNSYPYMYTFGQGTKLEIK"
13,0.18 µM,"Ab416 (antibody, V domains shown, humanized) VH: EVQLVQSGAEVKKPGASVKLSCKASGYTFTSYWMHWVRQAPGQGLEWIGYIKPSSGYTKYNQKFKDKATLTADKSTSTAYMELRSLRSDDTAVYYCARDYYGSSSWFAYWGQGTLVTVSS VL: EIVMTQSQATLSTSPGERATLSCKASQNVGTNVAWYQQKPGQAPRALIYSASYRYSGVPARFSGSGSGTDFTLTISSVEPEDFAVYYCQQYNSYPYMYTFGQGTKLEIK"
14,0.186 µM,"Ab393 (antibody, V domains shown, humanized) VH: EVQLVQSGAEVAKPGASVKLSCKASGYTFTSYWMHWVRQAPGQGLEWIGYIKPSSGYTKYNQKFKDKATLTADKSTSTAYMELRSLRSDDTAVYYCARDYYGSSSWFAYWGQGTLVTVSS VL: EIVMTQSPATLSTSPGERATLSCKASQNVGTNVAWYQQKPGQAPRALIYSASYRYSGVPARFSGSGSGTDFTLTISSVEPEDFAVYYCQQYNSYPYMYTFGQGTKLEIK"
15,0.132 µM,"Ab404 (antibody, V domains shown, humanized) VH: EVQLVQSGAEVKKPGASVKLSCKASGYTFTSYWMHWVRQAPGQGLEWIGYIKPSSGYTKYNQKFKDKATLTADKSTSTAYMELRSLRSDDTAVYYCARDYYGSSSWFAYWGQGTLVTVSS VL: EIVMTQSQATMSTSVGERATLSCKASQNVGTNVAWYQQKPGQSPKALIYSASYRYSGVPARFSGSGSGTDFTLTISSVEPEDFAVYYCQQYNSYPYMYTFGQGTKLEIK"
16,1.66 µM,"Ab413 (antibody, V domains shown, humanized) VH: EVQLVQSGAEVKKPGTSVKLSCKASGYTFTSSAMQWVKQAPGQGLEWIGYIKPSSGYTKYNQKFKDKATLTADKSTSTAYMELSSLRSEDTAVYYCARDYYGSSSWFAYWGQGTLVTVSS VL: EIVMTQSQATLSTSPGERATLSCKASQNVGTNVAWYQQKPGQAPRALIYSASYRYSGVPARFSGSGSGTDFTLTISSVEPEDFAVYYCQQYNSYPYMYTFGQGTKLEIK"
17,0.128 µM,"Ab415 (antibody, V domains shown, humanized) VH: QVQLVQSGAEVAKPGASVKLSCKASGYTFTSYWMHWVKQAPGQGLEWIGYIKPSSGYTKYNQKFKDKATLTADKSTSTAYMELRSLRSDDTAVYYCARDYYGSSSWFAYWGQGTLVTVSS VL: EIVMTQSQATLSTSPGERATLSCKASQNVGTNVAWYQQKPGQAPRALIYSASYRYSGVPARFSGSGSGTDFTLTISSVEPEDFAVYYCQQYNSYPYMYTFGQGTKLEIK"
18,0.111 µM,"Ab412 (antibody, V domains shown, humanized) VH: EVQLVQSGPEVKKPGTSVKLSCKASGYTFTSYWMHWVRQARGQRLEWIGYIKPSSGYTKYNQKFKDRATLTADKSTSTAYMELSSLRSEDTAVYYCARDYYGSSSWFAYWGQGTLVTVSS VL: EIVMTQSQATLSTSPGERATLSCKASQNVGTNVAWYQQKPGQAPRALIYSASYRYSGVPARFSGSGSGTDFTLTISSVEPEDFAVYYCQQYNSYPYMYTFGQGTKLEIK"
19,0.176 µM,"Ab396 (antibody, V domains shown, humanized) VH: EVQLVQSGAEVKKPGSSVKLSCKASGYTFTSYWMHWVRQAPGQGLEWIGYIKPSSGYTKYNQKFKDKATLTADKSTSTAYMELSSLRSEDTAVYYCARDYYGSSSWFAYWGQGTLVTVSS VL: EIVMTQSPATLSTSPGERATLSCKASQNVGTNVAWYQQKPGQAPRALIYSASYRYSGVPARFSGSGSGTDFTLTISSVEPEDFAVYYCQQYNSYPYMYTFGQGTKLEIK"
20,0.132 µM,"Ab395 (antibody, V domains shown, humanized) VH: QVQLVQSGAEVAKPGSSVKLSCKASGYTFTSYWMHWVKQAPGQGLEWIGYIKPSSGYTKYNQKFKDKATLTADKSTSTAYMELSSLRSEDTAVYYCARDYYGSSSWFAYWGQGTLVTVSS VL: EIVMTQSPATLSTSPGERATLSCKASQNVGTNVAWYQQKPGQAPRALIYSASYRYSGVPARFSGSGSGTDFTLTISSVEPEDFAVYYCQQYNSYPYMYTFGQGTKLEIK"
21,0.208 µM,"Ab409 (antibody, V domains shown, humanized) VH: EVQLVQSGAEVKKPGSSVKVSCKASGYTFSSYWMHWVRQAPGQGLEWIGYIKPSSGYTKYNQKFKDKATLTADKSTSTAYMELSSLRSEDTAVYYCARDYYGSSSWFAYWGQGTLVTVSS VL: EIVMTQSQATMSTSVGERATLSCKASQNVGTNVAWYQQKPGQSPKALIYSASYRYSGVPARFSGSGSGTDFTLTISSVEPEDFAVYYCQQYNSYPYMYTFGQGTKLEIK"
